From patent US20020164690A1

T1: gp130 on PC12D cells (UniProt P40190)
T1 sequence (looked up): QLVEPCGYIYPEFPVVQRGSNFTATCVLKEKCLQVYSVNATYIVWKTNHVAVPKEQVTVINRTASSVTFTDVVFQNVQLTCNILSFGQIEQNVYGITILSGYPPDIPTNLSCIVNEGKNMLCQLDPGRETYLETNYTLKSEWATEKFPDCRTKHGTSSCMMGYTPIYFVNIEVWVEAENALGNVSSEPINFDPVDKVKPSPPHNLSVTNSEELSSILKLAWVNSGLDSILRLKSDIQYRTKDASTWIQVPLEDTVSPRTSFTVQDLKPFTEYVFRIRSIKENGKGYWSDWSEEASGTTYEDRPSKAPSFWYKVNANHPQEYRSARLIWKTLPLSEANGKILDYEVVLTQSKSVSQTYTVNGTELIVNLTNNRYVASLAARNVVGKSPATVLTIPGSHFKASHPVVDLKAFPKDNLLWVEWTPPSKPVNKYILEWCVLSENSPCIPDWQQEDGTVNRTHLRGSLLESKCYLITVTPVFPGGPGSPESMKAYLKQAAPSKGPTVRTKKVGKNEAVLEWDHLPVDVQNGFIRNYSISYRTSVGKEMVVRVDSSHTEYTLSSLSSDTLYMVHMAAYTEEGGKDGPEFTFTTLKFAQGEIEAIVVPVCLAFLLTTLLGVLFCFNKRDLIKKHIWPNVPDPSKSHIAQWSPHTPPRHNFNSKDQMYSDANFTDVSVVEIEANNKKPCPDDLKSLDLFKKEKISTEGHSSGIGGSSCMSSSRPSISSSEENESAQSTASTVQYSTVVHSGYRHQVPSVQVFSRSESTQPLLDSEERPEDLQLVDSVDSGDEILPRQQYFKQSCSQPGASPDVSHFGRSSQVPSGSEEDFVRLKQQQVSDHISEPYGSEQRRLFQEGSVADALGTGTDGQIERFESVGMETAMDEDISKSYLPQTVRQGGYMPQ

B1: anti-IL-6 monoclonal neutralizing antibody B-E8 (antibody, from another filing, V domains shown)
VH: QVTLKESGPGILKPSQTLSLTCSFSGFSLSTSGMGVGWIRQPSGKGLEWLAHIWWDDDKYYNPSLKSQLTISKDTSRNQVFLKITSVDTADTATYYCARSYDDYLYYALDYWGQGTSVTVSS
VL: DIVMTQSPATLSVTPGDRVSLSCRASQSISDYLHWYQQKSHESPRLLIKSVSQSISGIPSRFSGSGSGSDFTLSINSVEPEDVGVYYCQNGHSFPLTFGAGTKLELK
B2: Rat CNTF (ligand, UniProt P20294 1-200, looked up)
chain: MAFAEQTPLTLHRRDLCSRSIWLARKIRSDLTALMESYVKHQGLNKNINLDSVDGVPVASTDRWSEMTEAERLQENLQAYRTFQGMLTKLLEDQRVHFTPTEGDFHQAIHTLMLQVSAFAYQLEELMVLLEQKIPENEADGMPATVGDGGLFEKKLWGLKVLQELSQWTVRSIHDLRVISSHQMGISALESHYGAKDKQM

Columns and labels:
[1] = target: recombinant human IL-6 (human) (UniProt P05231); assay: cell-based or functional assay
human 125I-IL6 (human) = human 125I-IL6 (human) (UniProt P05231); assay: dissociation: 20 pM 125I-IL-6 preincubated with 500 pM antibody for 20 hours, chased with 20 nM cold IL-6, precipitation with Protein G-Sepharose
gp130 on PC12D cells = target: T1, gp130 on PC12D cells; assay: cell-based or functional assay

Chain of human 125I-IL6 (human) (P05231 30-212 limits assumed): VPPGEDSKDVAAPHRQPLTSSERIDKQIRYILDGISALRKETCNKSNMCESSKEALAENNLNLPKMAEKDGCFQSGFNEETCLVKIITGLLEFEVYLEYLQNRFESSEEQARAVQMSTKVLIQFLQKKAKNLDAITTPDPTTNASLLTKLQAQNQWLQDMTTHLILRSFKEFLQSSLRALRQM
Chain of recombinant human IL-6 (human) (P05231 30-212 limits assumed): as above

| Binder | IL-6-dependent proliferation of XG-1 cells (50 pg/ml IL-6): molar excess that blocks completely (fold molar excess over IL-6) [1] | percent of the counts still associated after three days (human 125I-IL6 (human)) [%] | tyrosine phosphorylation of gp130 in PC12D cells in response to IL-6 (gp130 on PC12D cells) [nM] | tyrosine phosphorylation of gp130 in PC12D cells in response to IL-6 and sIL-6Rα (gp130 on PC12D cells) [nM] |
| --- | --- | --- | --- | --- |
| B1 | 10 | < 5 |  |  |
| B2 |  |  | 2 | 8 |
